Target: Cdc13 amino-terminus through the DBD (N) (S. cerevisiae)
Test: fluorescence polarisation

Hsp82 (yeast Hsp90 molecular chaperone) (from UniProt P02829 1-709) (natural protein)
Kd: 35 nM

Source: paper PMC2744139
